# Measurements: article PMC10786891, “Massively parallel profiling of RNA-targeting CRISPR-Cas13d”
# Residue numbers refer to the chain shown, from its start.
# T1: EsCas13d, nuclease-dead (Eubacterium siraeum, UniProt B0MS50, R295A;H300A;R849A;H854A)
# T1 sequence: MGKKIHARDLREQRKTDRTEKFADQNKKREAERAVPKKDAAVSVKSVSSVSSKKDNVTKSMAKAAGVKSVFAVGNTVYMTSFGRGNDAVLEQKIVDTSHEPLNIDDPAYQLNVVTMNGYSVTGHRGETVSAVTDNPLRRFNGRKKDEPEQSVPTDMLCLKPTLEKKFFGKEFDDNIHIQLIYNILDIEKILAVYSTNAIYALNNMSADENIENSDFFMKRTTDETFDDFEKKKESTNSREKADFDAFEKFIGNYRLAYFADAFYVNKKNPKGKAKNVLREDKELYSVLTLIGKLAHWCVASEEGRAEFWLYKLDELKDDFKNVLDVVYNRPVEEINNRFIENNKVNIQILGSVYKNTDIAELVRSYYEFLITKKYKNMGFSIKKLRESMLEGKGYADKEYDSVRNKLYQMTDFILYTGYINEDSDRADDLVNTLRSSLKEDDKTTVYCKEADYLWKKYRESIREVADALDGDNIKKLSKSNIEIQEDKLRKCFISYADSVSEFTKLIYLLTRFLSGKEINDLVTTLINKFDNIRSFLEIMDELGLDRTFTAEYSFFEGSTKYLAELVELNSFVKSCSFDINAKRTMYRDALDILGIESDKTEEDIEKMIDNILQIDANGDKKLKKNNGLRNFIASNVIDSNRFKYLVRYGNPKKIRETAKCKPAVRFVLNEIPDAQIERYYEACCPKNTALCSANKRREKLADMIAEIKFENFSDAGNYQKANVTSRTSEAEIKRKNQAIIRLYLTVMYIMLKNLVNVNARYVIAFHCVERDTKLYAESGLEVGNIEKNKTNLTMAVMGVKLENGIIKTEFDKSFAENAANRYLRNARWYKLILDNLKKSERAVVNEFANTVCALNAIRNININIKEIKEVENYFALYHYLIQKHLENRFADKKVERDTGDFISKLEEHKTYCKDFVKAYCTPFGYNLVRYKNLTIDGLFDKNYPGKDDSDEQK
# B1: target 1 insG 3' of 18,insG 3' of 6 (mixed)
# RNA 1: CACCCGUGCAAAAAUGCAGGGGUCUAAAACUGAGCGGAUAACCUCUCUAUGG
# RNA 2: GGGAAUGGAUCCACAUCUACGAAUUCGUACCAUAGGAGAGGUUAUCCGGCUCACCGAGAUCGGAAGAGCACACGU
# B2: target 2 MT 5'PFS CGA 3'PFS UAC (mixed)
# RNA 1: CACCCGUGCAAAAUUGCAGGGGUCUAAAACCUUCUCCAAAUUGUUUCAUCCU
# RNA 2: GGGAAUGGAUCCACAUCUACGAAUUCCGAAGGAUGAAACAAUUUGGAGAAGUACAGAUCGGAAGAGCACACGU
# B3: target 2 MT 5'PFS AAG 3'PFS CCA (mixed)
# RNA 1: B2 RNA 1
# RNA 2: B2 RNA 2 with C27A, G28A, A29G, U52C, A53C, C54A
# B4: target 2 MT 5'PFS AAU 3'PFS UUU (mixed)
# RNA 1: B2 RNA 1
# RNA 2: B2 RNA 2 with C27A, G28A, A29U, A53U, C54U
# B5: target 2 MT 5'PFS ACU 3'PFS CGC (mixed)
# RNA 1: B2 RNA 1
# RNA 2: B2 RNA 2 with C27A, G28C, A29U, U52C, A53G
# B6: target 2 MT 5'PFS AGG 3'PFS CGC (mixed)
# RNA 1: B2 RNA 1
# RNA 2: B2 RNA 2 with C27A, A29G, U52C, A53G
# B7: target 2 MT 5'PFS ACU 3'PFS CGG (mixed)
# RNA 1: B2 RNA 1
# RNA 2: B2 RNA 2 with C27A, G28C, A29U, U52C, A53G, C54G
# B8: target 2 MT 5'PFS ACU 3'PFS CGA (mixed)
# RNA 1: B2 RNA 1
# RNA 2: B2 RNA 2 with C27A, G28C, A29U, U52C, A53G, C54A
# B9: target 2 MT 5'PFS AAG 3'PFS CCG (mixed)
# RNA 1: B2 RNA 1
# RNA 2: B2 RNA 2 with C27A, G28A, A29G, U52C, A53C, C54G
# B10: target 2 MT 5'PFS AAU 3'PFS UUA (mixed)
# RNA 1: B2 RNA 1
# RNA 2: B2 RNA 2 with C27A, G28A, A29U, A53U, C54A
# B11: target 2 MT 5'PFS AUG 3'PFS UCA (mixed)
# RNA 1: B2 RNA 1
# RNA 2: B2 RNA 2 with C27A, G28U, A29G, A53C, C54A
# B12: target 2 MT 5'PFS AAU 3'PFS UUC (mixed)
# RNA 1: B2 RNA 1
# RNA 2: B2 RNA 2 with C27A, G28A, A29U, A53U
# B13: target 2 MT 5'PFS AAA 3'PFS CUU (mixed)
# RNA 1: B2 RNA 1
# RNA 2: B2 RNA 2 with C27A, G28A, U52C, A53U, C54U
# B14: target 2 MT 5'PFS CGA 3'PFS CCA (mixed)
# RNA 1: B2 RNA 1
# RNA 2: B2 RNA 2 with U52C, A53C, C54A
# B15: target 2 MT 5'PFS CGA 3'PFS CCG (mixed)
# RNA 1: B2 RNA 1
# RNA 2: B2 RNA 2 with U52C, A53C, C54G
# B16: target 2 MT 5'PFS AUG 3'PFS UCC (mixed)
# RNA 1: B2 RNA 1
# RNA 2: B2 RNA 2 with C27A, G28U, A29G, A53C
# B17: target 2 MT 5'PFS AUG 3'PFS UCU (mixed)
# RNA 1: B2 RNA 1
# RNA 2: B2 RNA 2 with C27A, G28U, A29G, A53C, C54U
# B18: target 2 MT 5'PFS AAA 3'PFS CUC (mixed)
# RNA 1: B2 RNA 1
# RNA 2: B2 RNA 2 with C27A, G28A, U52C, A53U
# Target: T1, EsCas13d, nuclease-dead
# Experiment: crRNA (strand 1, pre-loaded); Mg2+; 40 mM Tris-HCl pH 7.5, 150 mM NaCl, 6 mM MgCl2, 1 mM DTT, 0.1% Tween-20, 0.2 mg/ml BSA; 25 C; 10 min per concentration, then washed
# Settings: tags: His6-TwinStrep-SUMO cleaved; N-terminal SNAP kept (SNAP-Surface 488); label: 3' end held by stalled T7 RNA polymerase
row,Binder,Kd [nM]
1,B1,71 ± 28
2,B2,9.5 ± 1.9
3,B3,8.7 ± 1.6
4,B4,12.4 ± 2.5
5,B5,7.1 ± 1
6,B6,4.7 ± 0.5
7,B7,3.47 ± 0.28
8,B8,4.1 ± 0.4
9,B9,6.3 ± 0.9
10,B10,6.5 ± 0.8
11,B11,15 ± 5
12,B12,9.7 ± 1.5
13,B13,3.9 ± 0.6
14,B14,31 ± 8
15,B15,11.1 ± 1.6
16,B16,24.4 ± 2.8
17,B17,17.4 ± 2.6
18,B18,6.5 ± 1.2
